Among the data in PMC11580166, “VPS26 Moonlights as a β-Arrestin-like Adapter for a 7-Transmembrane RGS Protein in Arabidopsis thaliana” (Biochemistry, 2024) are Kd values, retold here.

First the molecules themselves.
B1: Vacuolar Protein Sorting-Associated 26B (AtVPS26B) [Arabidopsis thaliana] / Vacuolar Protein Sorting-Associated 26A (AtVPS26A) [Arabidopsis thaliana] (parent complex)
chain 1: MNYLLGAFKPACNISITFSDGKNRKQVPMKKENGQTALVPLFHSQDTISGKVCIEPYQGKKVEHNGVKVELLGQIEMYFDRGNFYDFTSLVRELDVPGEIYERKTYPFEFPTVEMPYETYNGVNVRLRYVLKVTVTRGYAGSILEYQELVVRNYAPLPDINNSIKMEVGIEDCLHIEFEYNKSKYHLKDVILGKIYFLLVRIKMKNMDLEIRRRESTGAGANTHVETETLAKFELMDGTPVRGESIPVRLFLAPYDLTPTHRNINNKFSVKYYLNLVLVDEEDRRYFKQQEITLYRLKEDASS
chain 2: MNYLLGAFKPACNISITFTDGKNRKQVPTKKDNGQIVMNPLFQSQETIAGKINIEPYQGKKVEHNGVKVELLGQIEMYFDRGNFYDFTSLVREIDVPGEIYERKTYPFEFSSVEMPYETYNGVNVRLRYVLKVTVTRGYAGSIVEYQDFVVRNYVPLPPINNSIKMEVGIEDCLHIEFEYNKSKYHLKDVILGKIYFLLVRIKIKNMDLEIRRRESTGAGANTHVETETLAKFELMDGAPVRGESIPVRVFLTPYDLTPTHKNINNKFSVKYYLNLVLVDEEDRRYFKQQEITLYRLKEETS

Variants of B1 are the subject of this test. The experiment in a line: Microscale Thermophoresis (MST); parent: 18 nM. A general note: In MST a laser heats a spot of the sample, and binding alters the fluorescence response.
A word on the Kd: it is the equilibrium constant for the complex coming apart. As for chain 1 Y85A, chain 1 E93A, the Kd was 525 nM.
